Laboratory results from article PMC9966940.

Biological target: SOD1-His (not stated (human or mouse cDNA cloned)) (UniProt P00441)
Sequence (P00441 whole entry): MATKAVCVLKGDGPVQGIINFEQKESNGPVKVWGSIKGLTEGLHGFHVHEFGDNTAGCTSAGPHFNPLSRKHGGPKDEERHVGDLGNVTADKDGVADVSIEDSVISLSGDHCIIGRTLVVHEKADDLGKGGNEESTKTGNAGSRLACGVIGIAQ

YWHAE protein purified by His tag from Pichia pastoris, sequence (P62258 whole entry): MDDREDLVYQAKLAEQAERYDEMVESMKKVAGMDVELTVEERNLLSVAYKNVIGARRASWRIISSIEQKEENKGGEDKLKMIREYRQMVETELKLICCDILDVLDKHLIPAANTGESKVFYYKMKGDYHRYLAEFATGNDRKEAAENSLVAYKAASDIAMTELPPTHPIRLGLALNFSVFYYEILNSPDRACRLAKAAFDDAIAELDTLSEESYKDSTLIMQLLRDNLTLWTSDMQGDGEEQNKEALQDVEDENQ

SOD1 activity of purified SOD1 incubated with purified YWHAE at 1:1 for 0-15 h at 4 °C in SOD1 activity assay buffer, against SOD1 plus buffer; value at 4 h: 40%
Substance: YWHAE protein purified by His tag from Pichia pastoris (from UniProt P62258 1-255) (natural protein)
